# Values of other authors in paper PMC11083953.
# What was measured:
# CD38 (Homo sapiens) = CD38 (Homo sapiens) (UniProt P28907)
# CD20 (Homo sapiens) = CD20 (Homo sapiens) (UniProt P11836)
# Chain of CD20 (Homo sapiens) (P11836 whole entry): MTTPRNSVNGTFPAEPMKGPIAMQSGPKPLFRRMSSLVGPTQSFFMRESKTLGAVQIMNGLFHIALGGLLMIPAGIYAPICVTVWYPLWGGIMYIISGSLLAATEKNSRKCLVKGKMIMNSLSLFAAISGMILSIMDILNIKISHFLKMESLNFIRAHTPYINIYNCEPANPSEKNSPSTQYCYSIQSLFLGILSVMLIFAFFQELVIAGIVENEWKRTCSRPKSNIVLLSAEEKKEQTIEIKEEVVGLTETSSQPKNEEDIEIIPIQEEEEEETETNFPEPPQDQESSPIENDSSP
substance,measurement,setting,value
daratumumab,Kd,CD38 (Homo sapiens),4.36 nM
rituximab,Kd,CD20 (Homo sapiens),8 nM
